Assay results taken from publication PMC6678494, “Characterization of the First Bacterial and Thermostable GDP-Mannose 3,5-Epimerase” (International Journal of Molecular Sciences, 2019).
One block for each molecule: values may come before it.

Tests used:
MfGM35E = biological target: T1, MfGM35E (Candidatus Methylacidiphilum fumarolicum, UniProt A0ABM9IGG7); assay: specific activity with added NAD+, HPAEC-PAD; type: biochemical; details: 2 mM GDP-Man, 100 mM MOPS pH 7.5, 50 °C; independent of added NAD+ concentration
T1 construct: gene MFUM_2356; codon-optimized gene in pET21 (NdeI/XhoI), C-terminal His6-tag kept, E. coli BL21(DE3), Ni-NTA, about 37 kDa

[1] = substrate: Nc1nc2c(ncn2[C@@H]2O[C@H](COP(=O)(O)OP(=O)(O)O[C@H]3O[C@H](CO)[C@@H](O)[C@H](O)[C@@H]3O)[C@@H](O)[C@H]2O)c(=O)[nH]1; assay: initial rate of GDP-L-galactose formation, HPAEC-PAD, Michaelis-Menten fit; type: biochemical, Candidatus Methylacidiphilum fumarolicum; details: 100 mM MOPS pH 7, 60 °C, 20-2000 µM substrate

% increase in activity (MfGM35E): 65%
Molecule: NC(=O)c1ccc[n+]([C@@H]2O[C@H](COP(=O)(O)OP(=O)(O)OC[C@H]3O[C@@H](n4cnc5c(N)ncnc54)[C@H](O)[C@@H]3O)[C@@H](O)[C@H]2O)c1 [NAD^+]

B1: MfGM35E (Candidatus Methylacidiphilum fumarolicum) (protein)
chain: MKKALVAGAGGFIGHHLVNFLKEKGYWVRGVDIKEPEYEKSRSDEFYLLDLRYWGNCLEATKGVDEVYQLAADMGGIGYISGNHAEIAKNNILINTHMLEASYQNGVKRYFYSSSACIYPSYRQQSVDVIPLKEEDAMPADPEEGYGWEKLFAEKLCQYYQEDKGIETRIARFHNVYGPLGTYKGGREKAPAAICRKIALAEDSSEIEVWGDGKQTRSFLYIQDCVEGIYLITQSDYPKPLNLGSEELVTIDQLVEMTAKVANKNIRIRHNLSKPQGVRGRNSDNSKLYKITGWRPKFPLLEGLKLTYPWIAERVARERNMQGCQ
notes: codon-optimized gene in pET21 (NdeI/XhoI), C-terminal His6-tag kept, E. coli BL21(DE3), Ni-NTA, about 37 kDa
Km [1]: 98 µM | kcat [1]: 0.2 s⁻¹
